This data set in a line: soluble on expression in E. coli; label from the status in PepcDB or PDB records.
For “MGSDKIHHHHHHVTLRQRIQAMSDCNRDPVSQITDLSGALVTIVPSLLACVGMVFASNLTDVTAEALLYDYREAANPLGQRLIARVPYQDWGAELHQTPETAIIPLDLSEALGCEGPATSPSLLANFVHILPNQAIETTAIATSQIFYVLRGQGVTRVADQEIAWTEGCCLALPADAIATHYAQTDSAFYWVHDAPLLRYLGVKPDRARFQPTLYRRQDLEATLAAIAADPQSRKANRLSVLLANQNFPQTRTITHTIWAMFGLLPPDVVQAPHRHQSVALDLILDCQPGCYTLVGTQLDERGQIRNPVRVDWRPYSVFVTPPGYWHAHYNESGQEAHLLPIQDAGLHTYLRTLDILFARHNGQISDEAA”, the “soluble on expression in E. coli” value is listed as “not soluble”.

On to “MGHHHHHHSHAESHLQSSLITASQFFEIWLHFDADGSGYLEGKELQNLIQELQQARKKAGLELSPEMKTFVDQYGQRDDGKIGIVELAHVLPTEENFLLLFRCQQLKSCEEFMKTWRKYDTDHSGFIETEELKNFLKDLLEKANKTVDDTKLAEYTDLMLKLFDSNNDGKLELTEMARLLPVQENFLLKFQGIKMCGKEFNKAFELYDQDGNGYIDENELDALLKDLCEKNKQDLDINNITTYKKNIMALSDGGKLYRTDLALILCAGDN”, for which the “soluble on expression in E. coli” value is given as “soluble”.

In the case of “MDQTYAEIENIYTLSPIIATTPKRYDVQYIQQKSRKNRNLIDHFDSRLPIEYRYPKKNSSATSSLSSAASRSLASKSLASSSSGYSSLGSTSSITTVFNGLSPFRSKSKNEEFDEQKAPSMRISEDVASIVIGENNSEVEEAVIDEVPEIKKRACCIECREKEIRQELDLESHQYANLQSLQKPQDPYVFLMTSMLTNLQKEDGGRQVVKVQQKIEKVLRLKPREPFNVEQKLVFDRQISTFASDVTIRLRAVSDAAPETYRDVSARFCEALHPGTPNSKGLKNIVKGVKNLLNF”, the “soluble on expression in E. coli” value is listed as “not soluble”.

Take “MRTHTGKIPDHFVPRISMTEEQRRVVFMLNSLLLDYPEEGFVDKLNAVEAQLDVLPLPVAAHVVEFLDAARVAGLRAMQEAYVETFDQRRRCSLFLTYYAVGDTRQRGTAILTFRQTLQQLGFESERDELPDHLCVVLEAAALADSSLFDAATQVLSAHRDGIEVLRAALDNLDSPYRYLIMSLCQALPEIDEETANSYMELIRSGPPAEMVGIGTPLPFPTSQPDIH”: the “soluble on expression in E. coli” value was “not soluble”.

As for “MGSDKIHHHHHHDEEPKSSLTLDTYYKTSADIIGNVNYLYRDGAPDKMGNMTGAYRGSSLSVMNMVTGYFVNEYEGQEVDCSYARQLTRQNFTQSCCNYLTNDTWKGCYKSINVANAVIKYVDGVEMDGQAQYKAEARFFRALNYFYLVKMFGDVPMITEPTEDATLVEYPARTAASEVYKTVIIPDLQFAVENLPDATFAGNSHRVTKYAADMLLADVYMRLGEYANAITPLKDVINSGKFALATNDNLAEGSAFNKLRTTDDLPEVIYAREYDAAISPNGNIPVHAFNLISPTFFANSSTGNKYSLWVNVYGVSERYLNVYGEKDLRAQMNQFFHRTYTHPVDGTTLDMKMLCNWYWYDETAILETGKGTKDWNFYRYAETLLSAAEAIAQSSGVNAEAAGYLAQVKARANMEGKDVSTIASELQRLGKQAFIEECWKERLREFPLEMKIWDDCVRTGKFPQISATNKGEVQFVDLIGATNGSGAKFKETDLYWPIPVNEIQRNPNLTQNEGYSAK”, the “soluble on expression in E. coli” value is given as “not soluble”.

With “GAMSVASLPECVKNFFPTEQLEFSSSITADEKPVLHEVFQKHSCFSQCGEMIDEVSKKHPELGKRLATVLEGNKKRLDGLSPAAVEYAKKLIHMVTTTLCSLTVGKPIDDADAKRLHQEFQSLSSEDQAALRKNNPDIKF”, the “soluble on expression in E. coli” value was “soluble”.

Regarding “KIIHIDCDCFYAALEMRDDPSLRGKALAVGGSPDKRGVVATCSYEARAYGVRSAMAMRTALKLCPDLLVVRPRFDVYRAVSKQIHAIFRDYTDLIEPLSLDEAYLDVSASPHFAGSATRIAQDIRRRVAEELHITVSAGVAPNKFLAKIASDWRKPDGLFVITPEQVDGFVAELPVAKLHGVGKVTAERLARMGIRTCADLRQGSKLSLVREFGSFGERLWGLAHGIDERPVEVDSRRQSVSVECTFDRDLPDLAACLEELPTLLEELDGRLQRLDGSYRPDKPFVKLKFHDFTQTTVEQSGAGRDLESYRQLLGQAFARGNRPVRLIGVGVRLLDLQGAHEQLR”, the “soluble on expression in E. coli” value is “not soluble”.

Regarding “MLKIGVITMALLSFLNAGWLGNLFDSTPTPYYKMPIDLSKAGNVTETDIRIDEKYSVYVELYYDYRKQKISGDRYGEIIDKYFGRHKLFPIFPIKLTVLKYEKTGTTMVVDKIYYTNSLGRTYSSREIDEFKLQEGSKYHIKVETVEDYPELAELNVEVVIGYIKAK”, the “soluble on expression in E. coli” value is “not soluble”.

Regarding “MRPDDAIELFNSCRGHCIERQNYIENLQKRHVRKNRNVSAPRTDGLEDSADPTEQVYTNNKPVKKKPRKNRRGGHLAPSQHFQHQTQSSPYSLRKWSQNQSVYQRGLVPPPGPAGEDYSQRRFFWSARPNKWTAESYQRPFYPYYWEWNL”, the “soluble on expression in E. coli” value is reported as “not soluble”.

Regarding “MINLELGKDFLDRFTKVCEFLRVEPSLDVVVFECESLEEFHEITGMPYHTGGVYHEGVIYTQPLDVLRRKNSLEATILHELLHHVLEMYFDLPRWMEEGVVLAVLGVKPEEVFGYHRDCLLRFMEKVRYEEIPDLVDRYRRSSVERRLEHHHHHH”, the “soluble on expression in E. coli” value is reported as “soluble”.

In the case of “MGSDKIHHHHHHMPNIPLRVNSLATEHPNNAQNSDKMPTFDAIFSHLSAIASHNSHQIIALLPSSDANWPAALIAERLTQAGSKQHLQKQHLHLHLFAQHQASWLKALAESETLASPAKEQIKAICDARVSGSHRLKLVNARLIIDIHLGDPLTQLKDLVSPSLASQAIQGWLANTQATDEALIWQMARLSQDNAEFLLLENNDVNLDKTSNNANTNLLTQLIIKAGFTCYRLNLSLKDDQLVTLAEKPSLASLEIAMVERRALRRQQLDKFAFNPLTQGREGETAIIGGGVASANLALSLAERGKKVSFFCMDKAPGEQASGNKQGAIYPLLTPEHGSLSHYFLLGYLFSRQRIKQLLESGHEIPHDFCGVLQTGHDERSHKRLTKIINAQPWAESIARPVDALQATALAGVTIEHQGIYYPLAGWVSPQ”, the “soluble on expression in E. coli” value is “not soluble”.

For the sequence “MVAVYDVEFPLPLNTQPMEARAAGVLPRDDGPWQYEPKWDGFRCLAFKAGKAVDLRAKSGKPLGRYFPELMAALSALAATEFVIDGEIIIEIEGRASFDALQMRLHPAESRIRKLSRETPARLVVFDMLVAPEGRPRMELPLRDRRAEAEDLVAKAKTKTLRLSPATTSLATADNWLKGAGSGSIDGVVAKLLNGPYRPGERAMVKVKRLRTADCVVGGFRYLNGKRQVGSLLLGLYNGDGLLDHVGFTSTIANDERAVLTEKLENLRGGSGFTGKAPGGPSRWSTERSGEWEPVRPELVVEVRFDHVTGDRFRHGTKLVRWRPDKAPLQCTFEQLELEHHHHHH”, the “soluble on expression in E. coli” value was “soluble”.

Take “MGSDKIHHHHHHMKFIFDIDGTICFKGNAVTKGIIHALDVCQSKGHEVIFASARPIRDLLPVLPNHMHHYSMIGGNGAFIAKGKDTIEVITFDPGTVSAIHSIIKKHSLSYLIDSHWNYSYTGSENHPIYKNIDPNQLANNVHIDEIKEVVKVVLFPDHVQKEYIMNMLTELPIRIYEHDNEGIVDISPENIDKWVGLQRLGIKEREFVVFGNDSNDLSMFLHAKESICVGSHEVLLGYASTCLKIDEQSIVNKIIELSELYA”: the “soluble on expression in E. coli” value was “not soluble”.

On to “GSKPVSEKIMEIKLIKGPKGLGFSIAGGVGNQHWPGDNSIYVTKIIEGGAAHKDGKLQIGDKLLAVNNVALEEVTHEEAVTALKNTSDFVYLKVAKPTS”, for which the “soluble on expression in E. coli” value is given as “soluble”.

In the case of “MNKKTIQDLIPKAMQAIEGVGIVGKDKKFEKVHEGYINALGPTIIQSGLLPTLIFYNKDKRELWLKALYYMEIISNDIDPTAIIQLIIKEGDSESRQEKTLKELEPKAKEWERKILEYAVALKLALRTFVAKESETGNTEQQKGGAQ”, the “soluble on expression in E. coli” value is on record as “not soluble”.

For “MGSDKIHHHHHHMAGANNPVITIKRGLDIPIAGEPLQQIDDAPKTTQVALIGEEYVGLKPTMSVEVGDHVVKGQVLFEDKKTPGVLFTAPASGVVCAINRGERRVLQSVVIDCDATQEPAIILESVDIHALSHQAVKDGLVRSGLWTALRTRPFSRVPQLDAAPAGIFVTAIDTNPLAPDPRVIIATQPQAFQAGLFALTFLTTEKVYLCQDDGASLLADASSEYDLSKVSVQRFNGVHPAGLVGTHIHFLLPASIERQVWHVGYQDVIAFGKLFLTGELYTDRIVALGGPNVLKPRLVRTQLGAKLSEWVNGEIDQRQSRIVSGSLLSGHTAADVYDFLGRFHNQISVLTENERQELLPWVRHDSSKFSLTGIMMSGFSRTKKLFDFTTNAGGSPRAMMAFGQLARVMPLDILPILLVRDLVVRDTDEAQLLGALELDEEDLALCTFVCPGKYDFGKELRACLDIIEREG”, the “soluble on expression in E. coli” value is “not soluble”.

In the case of “SEVDINGDSRSTLTTLPLPVAEGSSPGKAEAEKPRCSSTPCSPMRRTVSGYQILHMDSNYLVGFTTGEELLKLAQKCTGGEDSKGEAMPALRAKQLDTGLARSSRLYKTRSRYYQPYEIPAVNGRRRRRMPSSGDKCTKPLPYEPYKALHGPLPLCLLKGKRAHSKSLDYLNLDKMNIKEPADTEVLQYQLQHLTLRGDRVFARNNT”, the “soluble on expression in E. coli” value is “not soluble”.

With “WSNNYAVDCPQHCDSSECKSSPRCERTVLDDCGCCRVCAAGRGETCYRTVSGMDGMKCGPGLRCQPSNGEDPFGEEFGICKDCPYGTFGMDCRETCNCQSGICDRGTGKCLKFPFFQYSVTKSSNRFVSLTEHDMASGDGNIVREEVVKENAAGSPVMRKWLNPR”, the “soluble on expression in E. coli” value is recorded as “soluble”.

For “MGSDKIHHHHHHMEKTILVHAAACAPAESCGYVVNTSAGERYFPCQNLSAEPTMYFRMAPEDYLRAQAAGDVVALVHSHPDGLPFLSDVDRRLQVQSGLPWWLVCHDRIYTFRCVPFLTGRVFEHGVTDCYTLFRDAYHLAGIEMPDFSRGEDWWKNGENLYLDNLEATGFYRVSGEEAQSGDILICCFGSSVANHAAIYCGNGELLHHIPDQLSKRERYTDKWQRRTHSIWRHRAWHESAFTGIYNDLAAALASV”, the “soluble on expression in E. coli” value is reported as “not soluble”.

In the case of “MKLKSLDFPTGYFYFDNAAINSDKVEVIAVGYRNTDKTIKIFIEDVIHFRVVDESYFIDTFMDLISEDADRALLHENGGQSFFELLDECYAEWILKESYFPLNREFFKYYIFMFEQTFIEIIGSSATYSIIEG”, the “soluble on expression in E. coli” value is reported as “not soluble”.

On to “MAHHHHHHMSENLDRYDAYRLFCISAAAVNGDEDELQDRLGIVEEYLTEYEGLCRAFHKAQRTTHAQEIRRLLADEAEERRFLKEDADSLPWKLFINMSFACAQELVVEHERKMRQGIVAAYTASFTELLFPYETLQRMRLTWEALDSLALKACIVGRYGVREGQLARTSIPGYTAGSTFPPSARAAAAADAVRSLLAEEHQERQEMIEARGQHVAAALLILASSEKFRSFASASVCGMGFLPQLRNNLASTARQALDNSATRIQSAYRGYRVRAVRARS”, for which the “soluble on expression in E. coli” value is listed as “not soluble”.

In the case of “MAHHHHHHMSKEKLAKEKIEKGQHYEAHQLIKSLINRKLQKNQVSSCMSIIFYFSQKMAKAEQYVLLCDLMYQCCTILTQHNIKFSEEYAKKIIEIFNLCPPNSTEEKYKFMNKCILWSTNDDEIFGYLDFHKAIAYAYFEDKKYSLAHNHFIYLEDNEILYKIICLWQKEGYPSESDFFILRTTLCLLVLDKFEQALDLINKFEPNLDRKDVPLPVQIAYLITCSCIYRSAPLYEDVKYKYRLILNYDPDFQKYIGILDDVLFNKRKHDLFSMFQNIFG”, the “soluble on expression in E. coli” value was “not soluble”.

Values taken from the DeepSol protein solubility set.
